The nature of data set [1]: DSF protein thermal shift assay (melting temperatures TM1/TM2). Type of data set: physicochemical. As to conditions: Table 8, humanized rabbit antibodies; TM2 = Fab domain. The procedure: (§1) A protein thermal shift assay was carried out by mixing the protein to be assayed with an environmentally sensitive dye (SYPRO Orange, Life Technologies #S-6650) and monitoring the fluorescence of the mixture in real time as it underwent controlled thermal denaturation. Protein solutions between 0.2-2 mg/mL were mixed at a 1:1 volumetric ratio with a solution of SYPRO Orange solution diluted 250-fold in PBS+10% sucrose. 10 μL aliquots of the protein-dye mixture were dispensed in quadruplicate in a 384-well microplate (Bio-Rad #MSP-3852). The plate was sealed with an optically clear sealing film (Bio-Rad #MSB-1001) and placed in a 384-well plate real-time thermocycler (Bio-Rad CFX384 Real Time System). The protein-dye mixture was heated from 25° C. to 95° C., at increments of 0.2° C. per cycle, allowing 3 seconds of equilibration at each temperature before taking a fluorescence measurement. At the end of the experiment, the transition melting temperatures (TM1 and TM2) were determined using the Bio-Rad CFX manager software. TM1 represents the melting temperature of the Fc domain. TM2 represents the melting temperature of the Fab domain.
as §1, with “solutions at 1” for “solutions between 0.2-2”, “a 1-1” for “a 1:1”, “sucrose. 5” for “sucrose. 10”

In the next data set the target is T1, human TF (Homo sapiens, UniProt P13726).
T1 construct: purchased Lake Pharma
Kind of data set: Biacore off-rate and kinetic binding, human TF. As to conditions: Table 11, humanized rabbit antibodies; 100 nM antigen, 25° C. The procedure:
(§2) Anti-Fc polyclonal antibodies were immobilized onto a CM4 chip (Cytiva #BR100534) using amine coupling chemistry (Human Antibody Capture Kit, Cytiva #BR100839). The immobilization steps were carried out at a flow rate of 25 μL/min in 1×HBS-EP+buffer (Cytiva #BR100669). The sensor surfaces were activated for 7 min with a mixture of N-hydroxysuccinimide (NHS, 0.05 M) and 1-ethyl-3-(3-dimethylaminopropyl)-carbodiimide (EDC, 0.2 M). The anti-Fc polyclonal antibodies were injected over all 4 flow cells at a concentration of 25 μg/mL in 10 mM sodium acetate, pH 4.5, for 7 min. Ethanolamine (1 M, pH 8.5) was injected for 7 min to block any remaining activated groups. Approximately 6,000 response units (RU) of capture antibody was immobilized on each flow cell.
(§3) Off-rate and kinetic binding experiments were performed at 25° C. using 1×HBS-EP+buffer. Antibodies were injected over the anti-Fc surface at a concentration of 3 μg/mL for 12 seconds at a flow rate of 10 μL/min on flow cells 2, 3 and 4, followed by a buffer wash for 30 seconds at the same flow rate. Single point off-rate analysis was carried out using an antigen concentration of 100 nM. […] After capturing ligand (antibody) on the anti-Fc surface, the analyte (human TF, Lake Pharma; cynomolgus TF, Sino Bio #90885-C08H; mouse TF, R&D Systems #3178-PA) was bound for 180 seconds, followed by a 420 second dissociation phase at a flow rate of 50 μL/min. Between each ligand capture and analyte binding cycle, regeneration was carried out using 2 injections of 10 mM glycine pH 2.0 for 30 seconds at 30 μL/min, followed by a 30 second buffer wash step.
(§4) The data were fit with the Biacore T200 Evaluation software, using a 1:1 Langmuir binding model. KD (affinity, nM) was determined as a ratio of the kinetic rate constants calculated from the fits of the association and dissociation phases.
(§5) Anti-Fc polyclonal antibodies were immobilized onto a CM4 chip (Cytiva #BR100534) using amine coupling chemistry (Human Antibody Capture Kit, Cytiva #BR100839). The immobilization steps were carried out at a flow rate of 25 μL/min in 1×HBS-EP+buffer (Cytiva #BR100669). The sensor surfaces were activated for 7 min with a mixture of NHS (0.05 M) and EDC (0.2 M). The Anti-Fc antibodies were injected over all 4 flow cells at a concentration of 25 ug/ml in 10 mM sodium acetate, pH 4.5, for 7 min. Ethanolamine (1 M, pH 8.5) was injected for 7 min to block any remaining activated groups. Approximately 6,000 response units (RU) of capture antibody was immobilized on each flow cell. Off-rate and kinetic binding experiments were performed at 25° C. using 1×HBS-EP+buffer. Antibodies or ADCs were injected over the anti-Fc surface at a concentration of 3 μg/mL for 12 seconds at a flow rate of 10 μL/min on flow cells 2, 3 and 4, followed by a buffer wash for 30 seconds at the same flow rate. […] After capturing ligand (antibody) on the anti-Fc surface, the analyte (human TF, Lake Pharma; cynomolgus TF, Sino Bio #90885-C08H; mouse TF, R&D Systems #3178-PA) was bound for 180 seconds, followed by a 420 second dissociation phase at a flow rate of 50 μL/min. Between each ligand capture and analyte binding cycle, regeneration was carried out using 2 injections of 10 mM Glycine pH 2.0 for 30 seconds at 30 μL/min, followed by a 30 second buffer wash step. The data was fit with the Biacore T200 Evaluation software, using a 1-1 Langmuir binding model. KD (affinity, nM) was determined as a ratio of the kinetic rate constants calculated from the fits of the association and dissociation phases.
On the technique in general: Surface plasmon resonance follows binding to a sensor surface in real time, without labels.

A further data set relates to cynomolgus TF. Kind of data set: Biacore off-rate and kinetic binding, cynomolgus TF. As to conditions: Table 11, humanized rabbit antibodies; 100 nM antigen, 25° C. The procedure:
as §2, §3, §4, §5

Chain of cynomolgus TF (as listed by the source): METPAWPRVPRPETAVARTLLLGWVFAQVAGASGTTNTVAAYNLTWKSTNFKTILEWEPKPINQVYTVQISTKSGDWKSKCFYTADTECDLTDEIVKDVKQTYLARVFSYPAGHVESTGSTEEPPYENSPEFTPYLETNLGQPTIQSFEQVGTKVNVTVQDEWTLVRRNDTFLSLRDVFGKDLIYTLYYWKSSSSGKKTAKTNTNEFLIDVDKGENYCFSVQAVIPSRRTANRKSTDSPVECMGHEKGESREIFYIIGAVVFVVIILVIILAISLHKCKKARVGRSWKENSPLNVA
T1 sequence (P13726 33-295): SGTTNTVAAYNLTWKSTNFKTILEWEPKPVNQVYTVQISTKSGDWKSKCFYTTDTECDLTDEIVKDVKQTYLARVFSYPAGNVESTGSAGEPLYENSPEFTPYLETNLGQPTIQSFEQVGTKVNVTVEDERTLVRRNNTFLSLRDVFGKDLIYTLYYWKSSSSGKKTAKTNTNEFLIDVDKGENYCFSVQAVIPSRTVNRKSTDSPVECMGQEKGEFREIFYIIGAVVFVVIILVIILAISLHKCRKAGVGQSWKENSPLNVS

B1: 2842-B01 HC1/LC1 (antibody, V domains shown)
VH: MQVQVVESGGGLVKPGGSLRLSCAASGFSISSYDMSWIRQAPGKGLEWIGIIGSNGRTYYADSVKGRFTISRNTNENTVYLQMNSLRAEDTAVYYCARGLYDGTGNIWGQGTLVTVSS
VL: MDLQMTQSPSSLSASVGDRVTITCRASQSVYGNNWLSWYQQKPGKAPKLLIYGASKLASGVPSRFSGSGSGTQFTLTISSLQPEDFATYYCQGTYYSGDWYFAFGQGTKVEIK
Regarding B1, the “DSF TM2 (° C.)” value in data set [1] stood at 87.3 °C. Besides, the “Biacore human TF single point off-rate kinetics kd” value with human TF is 0.000727 s⁻¹. Moreover, in the data set with cynomolgus TF, the “Biacore cynomolgus TF single point off-rate kinetics kd” value amounted to 0.00352 s⁻¹.

B2: 2842-B01 HC1/LC2 (antibody, V domains shown)
VH: MQVQVVESGGGLVKPGGSLRLSCAASGFSISSYDMSWIRQAPGKGLEWIGIIGSNGRTYYADSVKGRFTISRNTNENTVYLQMNSLRAEDTAVYYCARGLYDGTGNIWGQGTLVTVSS
VL: MELVMTQSPPTLSLSPGERVTLSCRASQSVYGNNWLSWYQQKPGQAPRLLIYGASKLATSIPARFSGSGSGTQFTLTISSLQPEDFAVYYCQGTYYSGDWYFAFGQGTKVEIK
For the molecule B2, in data set [1], the “DSF TM2 (° C.)” value was 82.4 °C. For the same molecule, the “Biacore human TF single point off-rate kinetics kd” value in the data set with human TF was determined as 0.000691 s⁻¹. For the same molecule, the “Biacore cynomolgus TF single point off-rate kinetics kd” value in the data set with cynomolgus TF was 0.00142 s⁻¹.

B3: 2842-G04 HC2/LC2 (antibody)
heavy: MQVQVQESGPGLVKPPGTLSLTCAVSGFSLSYYGVSWVRQPPGKGLEWIGTIDSSGRTYYNPSLKSRVTISNDNAPNTVSLKLSSVTAADTAVYYCARDFYGWNSGALDIWGQGTLVTVSSASTKGPSVFPLAPSSKSTSGGTAALGCLVKDYFPEPVTVSWNSGALTSGVHTFPAVLQSSGLSLSSVVTVPSSSLGTQTYICNVNHKPSNTKVDKKVEPKSCDKTHTCPPCPAPELLGGPSVFLFPPKPKDTLMISRTPEVTCVVVDVSHEDPEVKFNWYVDGVEVHNAKTKPREEQYNSTYRVVSVLTVLHQDWLNGKEYKCKVSNKALPAPIEKTISKAKGQPREPQVYTLPPSREEMTKNQVSLTCLVKGFYPSDIAVEWESNGQPENNYKTTPPVLDSDGSFLYSKLTVDKSRWQQGNVFSCSVMHEALHNHYTQKSLSLSPGK
light: MDLQLTQSPSTLSASVGDRVTITCRASQSVYSNKYLSWYQQKPGKAPKLLIYKASTLASGVPSRFSGSGSGTEFTLTISSLQPDDFATYYCAAAYSDDSDTAFGQGTKVEIKRTVAAPSVFIFPPSDEQLKSGTASVVCLLNNFYPREAKVQWKVDNALQSGNSQESVTEQDSKDSTYSLSSTLTLSKADYEKHKVYACEVTHQGLSSPVTKSFNRGEC
modifications: conjugated to LP1 at Y180/F404
Take B3: the “DSF TM2 (° C.)” value in data set [1] worked out at 80.2 °C. Besides, the “Biacore human TF single point off-rate kinetics kd” value with human TF turned out to be 0.000736 s⁻¹. Also, in the data set on cynomolgus TF, the “Biacore cynomolgus TF single point off-rate kinetics kd” value is 0.0017 s⁻¹.

B4: 2842-B01 HC3/LC1 (antibody)
heavy: MEVQLVESGGGLVQPGGSLRLSCAASGFSISSYDMSWVRQAPGKGLEWIGIIGSNGRTYYPDSVKGRFTISRDNSKNTVTLQMNSLRAEDTAVYYCARGLYDGTGNIWGQGTLVTVSSASTKGPSVFPLAPSSKSTSGGTAALGCLVKDYFPEPVTVSWNSGALTSGVHTFPAVLQSSGLSLSSVVTVPSSSLGTQTYICNVNHKPSNTKVDKKVEPKSCDKTHTCPPCPAPELLGGPSVFLFPPKPKDTLMISRTPEVTCVVVDVSHEDPEVKFNWYVDGVEVHNAKTKPREEQYNSTYRVVSVLTVLHQDWLNGKEYKCKVSNKALPAPIEKTISKAKGQPREPQVYTLPPSREEMTKNQVSLTCLVKGFYPSDIAVEWESNGQPENNYKTTPPVLDSDGSFLYSKLTVDKSRWQQGNVFSCSVMHEALHNHYTQKSLSLSPGK
light: MDLQMTQSPSSLSASVGDRVTITCRASQSVYGNNWLSWYQQKPGKAPKLLIYGASKLASGVPSRFSGSGSGTQFTLTISSLQPEDFATYYCQGTYYSGDWYFAFGQGTKVEIKRTVAAPSVFIFPPSDEQLKSGTASVVCLLNNFYPREAKVQWKVDNALQSGNSQESVTEQDSKDSTYSLSSTLTLSKADYEKHKVYACEVTHQGLSSPVTKSFNRGEC
modifications: conjugated to LP1 at Y180/F404
With B4, the “DSF TM2 (° C.)” value in data set [1] amounted to 86.5 °C. Further, in the data set with human TF, the “Biacore human TF single point off-rate kinetics kd” value came to 0.000416 s⁻¹. Further, in the data set with cynomolgus TF, the “Biacore cynomolgus TF single point off-rate kinetics kd” value was 0.00187 s⁻¹.

B5: 2842-B01 HC1/LC3 (antibody)
heavy: MQVQVVESGGGLVKPGGSLRLSCAASGFSISSYDMSWIRQAPGKGLEWIGIIGSNGRTYYADSVKGRFTISRNTNENTVYLQMNSLRAEDTAVYYCARGLYDGTGNIWGQGTLVTVSSASTKGPSVFPLAPSSKSTSGGTAALGCLVKDYFPEPVTVSWNSGALTSGVHTFPAVLQSSGLSLSSVVTVPSSSLGTQTYICNVNHKPSNTKVDKKVEPKSCDKTHTCPPCPAPELLGGPSVFLFPPKPKDTLMISRTPEVTCVVVDVSHEDPEVKFNWYVDGVEVHNAKTKPREEQYNSTYRVVSVLTVLHQDWLNGKEYKCKVSNKALPAPIEKTISKAKGQPREPQVYTLPPSREEMTKNQVSLTCLVKGFYPSDIAVEWESNGQPENNYKTTPPVLDSDGSFLYSKLTVDKSRWQQGNVFSCSVMHEALHNHYTQKSLSLSPGK
light: MDIQMTQSPSSLSASVGDRVTITCQASQSVYGNNWLSWYQQKPGKAPKLLIYGASKLASGVPSRFSGSGSGTDFTLTISSLQPEDFATYYCQGTYYSGDWYFAFGGGTKVEIKRTVAAPSVFIFPPSDEQLKSGTASVVCLLNNFYPREAKVQWKVDNALQSGNSQESVTEQDSKDSTYSLSSTLTLSKADYEKHKVYACEVTHQGLSSPVTKSFNRGEC
modifications: conjugated to LP1 at Y180/F404
As to B5, the “DSF TM2 (° C.)” value in data set [1] came to 87.6 °C. In addition, in the data set with human TF, the “Biacore human TF single point off-rate kinetics kd” value was found to be 0.00054 s⁻¹. Moreover, the “Biacore cynomolgus TF single point off-rate kinetics kd” value in the data set on cynomolgus TF came to 0.00117 s⁻¹.

The record behind these values is US12540197B2, “Anti-tissue factor antibodies and antibody conjugates, compositions comprising anti-tissue factor antibodies or antibody conjugates, and methods of making and using anti-tissue factor antibodies and antibody conjugates” (SUTRO BIOPHARMA, INC., priority 2023, dated 2026).
